Data from article PMC8131196, “Structure and dynamics of a mycobacterial type VII secretion system” (Nature, 2021).

B1: EccB5 (natural protein)
chain: MAEESRGQRGSGYGLGLSTRTQVTGYQFLARRTAMALTRWRVRMEIEPGRRQTLAVVASVSAALVICLGALLWSFISPSGQLNESPIIADRDSGALYVRVGDRLYPALNLASARLITGRPDNPHLVRSSQIATMPRGPLVGIPGAPSSFSPKSPPASSWLVCDTVATSSSIGSLQGVTVTVIDGTPDLTGHRQILSGSDAVVLRYGGDAWVIREGRRSRIEPTNRAVLLPLGLTPEQVSQARPMSRALFDALPVGPELLVPEVPNAGGPATFPGAPGPIGTVIVTPQISGPQQYSLVLGDGVQTLPPLVAQILQNAGSAGNTKPLTVEPSTLAKMPVVNRLDLSAYPDNPLEVVDIREHPSTCWWWERTAGENRARVRVVSGPTIPVAATEMNKVVSLVKADTSGRQADQVYFGPDHANFVAVTGNNPGAQTSESLWWVTDAGARFGVEDSKEARDALGLTLTPSLAPWVALRLLPQGPTLSRADALVEHDTLPMDMTPAELVVPK
notes: also called inner EccB5; outer EccB5
B2: MycP5 protease (enzyme)
chain: ISPPTIDPGALPPDGPPGPLAPMKQNAYCTEVGVLPGTDFQLQPKYMEMLNLNEAWQFGRGDGVKVAVIDTGVTPHPRLPRLIPGGDYVMAGGDGLSDCDAHGTLVASMIAAVPANGAVPLPSVPRRPVTIPTTETPPPPQTVTLSPVPPQTVTVIPAPPPEEGVPPGAPVPGPEPPPAPGPQPPAVDRGGGTVTVPSYSGGRKIAPIDNPRNPHPSAPSPALGPPPDAFSGIAPGVEIISIRQSSQAFGLKDPYTGDEDPQTAQKIDNVETMARAIVHAANMGASVINISDVMCMSARNVIDQRALGAAVHYAAVDKDAVIVAAAGDGSKKDCKQNPIFDPLQPDDPRAWNAVTTVVTPSWFHDYVLTVGAVDANGQPLSKMSIAGPWVSISAPGTDVVGLSPRDDGLINAIDGPDNSLLVPAGTSFSAAIVSGVAALVRAKFPELSAYQIINRLIHTARPPARGVDNQVGYGVVDPVAALTWDVPKGPAEPPKQLSAPLVVPQPPAPRDMVPIWVAAGGLAGALLIGGAVFGTATLMRRSRKQQ
notes: also called mycosin
B3: EccC5 (natural protein)
chain: MKRGFARPTPEKPPVIKPENIVLSTPLSIPPPEGKPWWLIVVGVVVVGLLGGMVAMVFASGSHVFGGIGSIFPLFMMVGIMMMMFRGMGGGQQQMSRPKLDAMRAQFMLMLDMLRETAQESADSMDANYRWFHPAPNTLAAAVGSPRMWERKPDGKDLNFGVVRVGVGMTRPEVTWGEPQNMPTDIELEPVTGKALQEFGRYQSVVYNLPKMVSLLVEPWYALVGEREQVLGLMRAIICQLAFSHGPDHVQMIVVSSDLDQWDWVKWLPHFGDSRRHDAAGNARMVYTSVREFAAEQAELFAGRGSFTPRHASSSAQTPTPHTVIIADVDDPQWEYVISAEGVDGVTFFDLTGSSMWTDIPERKLQFDKTGVIEALPRDRDTWMVIDDKAWFFALTDQVSIAEAEEFAQKLAQWRLAEAYEEIGQRVAHIGARDILSYYGIDDPGNIDFDSLWASRTDTMGRSRLRAPFGNRSDNGELLFLDMKSLDEGGDGPHGVMSGTTGSGKSTLVRTVIESLMLSHPPEELQFVLADLKGGSAVKPFAGVPHVSRIITDLEEDQALMERFLDALWGEIARRKAICDSAGVDDAKEYNSVRARMRARGQDMAPLPMLVVVIDEFYEWFRIMPTAVDVLDSIGRQGRAYWIHLMMASQTIESRAEKLMENMGYRLVLKARTAGAAQAAGVPNAVNLPAQAGLGYFRKSLEDIIRFQAEFLWRDYFQPGVSIDGEEAPALVHSIDYIRPQLFTNSFTPLEVSVGGPDIEPVVAQPNGEVLESDDIEGGEDEDEEGVRTPKVGTVIIDQLRKIKFEPYRLWQPPLTQPVAIDDLVNRFLGRPWHKEYGSACNLVFPIGIIDRPYKHDQPPWTVDTSGPGANVLILGAGGSGKTTALQTLICSAALTHTPQQVQFYCLAYSSTALTTVSRIPHVGEVAGPTDPYGVRRTVAELLALVRERKRSFLECGIASMEMFRRRKFGGEAGPVPDDGFGDVYLVIDNYRALAEENEVLIEQVNVIINQGPSFGVHVVVTADRESELRPPVRSGFGSRIELRLAAVEDAKLVRSRFAKDVPVKPGRGMVAVNYVRLDSDPQAGLHTLVARPALGSTPDNVFECDSVVAAVSRLTSAQAPPVRRLPARFGVEQVRELASRDTRQGVGAGGIAWAISELDLAPVYLNFAENSHLMVTGRRECGRTTTLATIMSEIGRLYAPGASSAPPPAPGRPSAQVWLVDPRRQLLTALGSDYVERFAYNLDGVVAMMGELAAALAGREPPPGLSAEELLSRSWWSGPEIFLIVDDIQQLPPGFDSPLHKAVPFVNRAADVGLHVIVTRTFGGWSSAGSDPMLRALHQANAPLLVMDADPDEGFIRGKMKGGPLPRGRGLLMAEDTGVFVQVAATEVRR
notes: also called EccC5 ATPase; not shown: TwinStrep, C-terminal, kept

Assays:
Assay in all cases: cryo-EM structure
[1] = biological target: B3; settings: both partners purified
[2] = biological target: the molecule itself
[3] = biological target: B2; settings: both partners purified

In the case of B1, the binding result [1] is reported as “binds”, the “stoichiometry N” value [2] is reported as 6 and the binding result [3] is reported as “binds”.

In the case of B2, the “stoichiometry N” value [2] is reported as 3.

B3: binds [2].
